Measurements published in article PMC9164069, “NADPH–Cytochrome P450 Reductase Mediates the Fatty Acid Desaturation of ω3 and ω6 Desaturases from Mortierella alpina” (Current Issues in Molecular Biology, 2022).

Columns and labels:
[1] = molecular target: T1, NADPH-CytP450R (Homo sapiens, UniProt P16435); assay: absorption shift of Cytb5 on reduction ([…] to […] nm); format: biochemical; settings: pH 7.5, 25 °C; 100 mM Hepes, 150 mM NaCl, 0.25 µM CytP450R, 5 µM human Cytb5, 5 µM NADPH
T1 construct: gene POR; soluble catalytic domain, C-terminal 614 residues (VRESSFV through SLDVWS), N-terminal His6 tag (pET15b), E. coli BL21(DE3), about 70 kDa
T1 sequence (P16435 64-677): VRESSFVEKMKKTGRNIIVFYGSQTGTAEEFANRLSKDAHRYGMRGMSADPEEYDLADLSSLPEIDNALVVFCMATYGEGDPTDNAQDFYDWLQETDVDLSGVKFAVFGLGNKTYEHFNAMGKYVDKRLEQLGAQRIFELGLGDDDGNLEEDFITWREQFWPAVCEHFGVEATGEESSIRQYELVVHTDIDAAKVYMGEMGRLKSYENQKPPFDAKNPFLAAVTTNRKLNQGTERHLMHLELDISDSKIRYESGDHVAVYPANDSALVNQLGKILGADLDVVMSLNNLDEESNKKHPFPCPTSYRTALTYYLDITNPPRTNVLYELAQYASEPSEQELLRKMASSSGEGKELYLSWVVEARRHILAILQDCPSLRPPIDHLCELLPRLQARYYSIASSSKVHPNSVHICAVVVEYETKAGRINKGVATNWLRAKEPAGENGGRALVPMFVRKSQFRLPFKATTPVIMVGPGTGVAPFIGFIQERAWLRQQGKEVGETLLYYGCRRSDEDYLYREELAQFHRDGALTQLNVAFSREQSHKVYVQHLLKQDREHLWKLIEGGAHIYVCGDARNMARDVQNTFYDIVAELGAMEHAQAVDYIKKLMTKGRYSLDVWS

[2] = substrate: CCCCC/C=C\C/C=C\C/C=C\C/C=C\CCCC(=O)SCCNC(=O)CCNC(=O)[C@H](O)C(C)(C)COP(=O)(O)OP(=O)(O)OC[C@H]1O[C@@H](n2cnc3c(N)ncnc32)[C@H](O)[C@@H]1OP(=O)(O)O; assay: purified protein; format: biochemical, Mortierella alpina; settings: pH 7.5, 28 °C, 25 mM Hepes, 150 mM NaCl, 1 µM NADPH, 100 nM desaturase, 0.5 µM human Cytb5, 1 µM human CytP450R, 0.002% Fos-16
[3] = substrate: CCCCC/C=C\C/C=C\C/C=C\CCCCC(=O)SCCNC(=O)CCNC(=O)[C@H](O)C(C)(C)COP(=O)(O)OP(=O)(O)OC[C@H]1O[C@@H](n2cnc3c(N)ncnc32)[C@H](O)[C@@H]1OP(=O)(O)O; assay: purified protein; format: biochemical, Mortierella alpina; settings: pH 7.5, 28 °C, 25 mM Hepes, 150 mM NaCl, 1 µM NADPH, 100 nM desaturase, 0.5 µM human Cytb5, 1 µM human CytP450R, 0.002% Fos-16
[4] = substrate: CCCCC/C=C\C/C=C\CCCCCCCC(=O)SCCNC(=O)CCNC(=O)[C@H](O)C(C)(C)COP(=O)(O)OP(=O)(O)OC[C@H]1O[C@@H](n2cnc3c(N)ncnc32)[C@H](O)[C@@H]1OP(=O)(O)O; assay: purified protein; format: biochemical, Mortierella alpina; settings: pH 7.5, 28 °C, 25 mM Hepes, 150 mM NaCl, 1 µM NADPH, 100 nM desaturase, 0.5 µM human Cytb5, 1 µM human CytP450R, 0.002% Fos-16
[5] = substrate: CCCCCC/C=C\CCCCCCCC(=O)SCCNC(=O)CCNC(=O)[C@H](O)C(C)(C)COP(=O)(O)OP(=O)(O)OC[C@H]1O[C@@H](n2cnc3c(N)ncnc32)[C@H](O)[C@@H]1OP(=O)(O)O; assay: purified protein; format: biochemical, Mortierella alpina; settings: pH 7.5, 28 °C, 25 mM Hepes, 150 mM NaCl, 1 µM NADPH, 100 nM desaturase, 0.5 µM human Cytb5, 1 µM human CytP450R, 0.002% Fos-16
[6] = substrate: CCCCCCCC/C=C\CCCCCCCC(=O)SCCNC(=O)CCNC(=O)[C@H](O)C(C)(C)COP(=O)(O)OP(=O)(O)OC[C@H]1O[C@@H](n2cnc3c(N)ncnc32)[C@H](O)[C@@H]1OP(=O)(O)O; assay: purified protein; format: biochemical, Mortierella alpina; settings: pH 7.5, 28 °C, 25 mM Hepes, 150 mM NaCl, 1 µM NADPH, 100 nM desaturase, 0.5 µM human Cytb5, 1 µM human CytP450R, 0.002% Fos-16

In the case of `NC(=O)C1=CN([C@@H]2O[C@H](COP(=O)(O)OP(=O)(O)OC[C@H]3O[C@@H](n4cnc5c(N)ncnc54)[C@H](OP(=O)(O)O)[C@@H]3O)[C@@H](O)[C@H]2O)C=CC1` [NADPH], the “absorption shift of Cytb5 on reduction (412 to 422, 521, 554 nm)” value [1] is reported as “when NADPH was added, Cytb5 was instantly reduced”.

B1: M. alpina ω3 desaturase (Mortierella alpina) (protein)
chain: MAPPHVVDEQVRRRIVVEDEIKSKKQFERNYVPMDFTIKEIRDAIPAHLFIRDTTKSILHVVKDLVTIAIVFYCATFIETLPSLALRVPAWITYWIIQGTVMVGPWILAHECGHGAFSDSKTINTIFGWVLHSALLVPYQAWAMSHSKHHKGTGSMTKDVVFIPATRSYKGLPALEKPAVEEEVSEQEHHHHEESIFAETPIYTLGALLFVLTFGWPLYLIVNFSGHEAPHWVNHFQTVAPLYEPHQRKNIFYSNCGIVAMGSILTYLSMVFSPLTVFMYYGIPYLGVNAWIVCITYLQHTDPKVPHFRDNEWNFQRGAACTIDRSFGTIVNHLHHHIGDSHQCHHMFSQMPFYNAVEATKYLKAKLGKYYIFDDTPIAKALYRNWRECKFVEDEGDVVFYKH
notes: membrane desaturase expressed in Pichia pastoris (pPink-HC) with 3C site, ZZ-tag and RGS-His10-tag; tags cut off by rhinovirus 3C protease; Fos-Choline-16 solubilized, IgG Sepharose and size exclusion purified
B1 gave a Km [2] of 157.0 ± 23.8 µM, a kcat [2] of 0.0233 ± 0.00167 s⁻¹ and a kcat/Km [2] of 167 M⁻¹ s⁻¹. The Km [3] was 87.8 ± 9.9 µM, the kcat [3] was 0.168 ± 0.00667 s⁻¹ and the kcat/Km [3] was 2000 M⁻¹ s⁻¹. For the same molecule, the Km [4] was 16.0 ± 2.2 µM, the kcat [4] was 0.11 ± 0.01 s⁻¹ and the kcat/Km [4] was 6830 M⁻¹ s⁻¹.

B2: M. alpina ω6 desaturase (Mortierella alpina) (protein)
chain: MAPPNTIDAGLTQRHISTSAAPTSAKPAFERNYQLPEFTIKEIRECIPAHCFERSGLRGLCHVAIDLTWASLLFLAATQIDKFENPLIRYLAWPAYWIMQGIVCTGIWVLAHECGHQSFSTSKTLNNTVGWILHSMLLVPYHSWRISHSKHHKATGHMTKDQVFVPKTRSQVGLPPKENAAAAVQEEDMSVHLDEEAPIVTLFWMVIQFLFGWPAYLIMNASGQDYGRWTSHFHTYSPIFEPRNFFDIIISDLGVLAALGALIYASMQLSLLTVTKYYIVPYLFVNFWLVLITFLQHTDPKLPHYREGAWNFQRGALCTVDRSFGKFLDHMFHGIVHTHVAHHLFSQMPFYHAEEATYHLKKLLGEYYVYDPSPIVVAVWRSFRECRFVEDHGDVVFFKK
notes: as for B1
B2 gave a Km [5] of 3.9 ± 0.9 µM, a kcat [5] of 0.00333 ± 0.000167 s⁻¹ and a kcat/Km [5] of 667 M⁻¹ s⁻¹. The Km [6] was 5.4 ± 0.8 µM, the kcat [6] was 0.00833 ± 0.000333 s⁻¹ and the kcat/Km [6] was 1500 M⁻¹ s⁻¹.
